Measurements as given in patent publication US20010044102.

Tested on: c-Myc (pM21 expression), P01106-1
Assay: cell_activity
Conditions: luciferase, NIH 3T3, SV40 minimal promoter

c-Myc (pM21 expression), P01106-1, sequence (P01106 16-454): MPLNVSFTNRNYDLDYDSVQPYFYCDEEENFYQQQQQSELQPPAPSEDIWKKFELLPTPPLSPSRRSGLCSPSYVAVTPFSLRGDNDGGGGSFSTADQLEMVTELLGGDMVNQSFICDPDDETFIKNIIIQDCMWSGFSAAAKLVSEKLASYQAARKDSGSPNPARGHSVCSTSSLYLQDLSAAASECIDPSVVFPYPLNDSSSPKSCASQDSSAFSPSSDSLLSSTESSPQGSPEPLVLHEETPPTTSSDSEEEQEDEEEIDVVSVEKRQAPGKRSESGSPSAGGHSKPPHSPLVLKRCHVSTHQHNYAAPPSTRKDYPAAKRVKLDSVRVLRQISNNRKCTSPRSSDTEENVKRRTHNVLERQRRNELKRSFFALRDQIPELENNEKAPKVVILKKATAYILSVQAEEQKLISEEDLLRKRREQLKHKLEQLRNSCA

Work on “cdc25A 2.5 kb KpnI/HindIII fragment (MB2+MB3) luciferase reporter” yielded an activity of 5 fold.
